This is an account of results in PMC6158717.

One data set deals with TGIF1-HD (160-250) (Homo sapiens, UniProt Q15583 160-250). Nature of the data set: ITC. (ITC needs no label: the signal is the heat of the interaction.)
For the next data set, the target named is TGIF1-HD (171-250) (Homo sapiens, UniProt Q15583 171-250). The data set can be described thus: ITC.
The next data set deals with TGIF1-HD R167A/R168A (Homo sapiens, UniProt Q15583 161-250, R167A;R168A). The data set can be described thus: X-ray 3.25 A.
TGIF1-HD R167A/R168A, sequence (Q15583 161-250 R167A/R168A): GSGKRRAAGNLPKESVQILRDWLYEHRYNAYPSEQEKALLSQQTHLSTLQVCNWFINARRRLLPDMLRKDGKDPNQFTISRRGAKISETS

TGIF1-HD (171-250), sequence (Q15583 171-250): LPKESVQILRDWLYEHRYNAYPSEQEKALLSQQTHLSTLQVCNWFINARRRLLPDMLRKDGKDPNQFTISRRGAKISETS
TGIF1-HD (160-250), sequence (Q15583 160-250): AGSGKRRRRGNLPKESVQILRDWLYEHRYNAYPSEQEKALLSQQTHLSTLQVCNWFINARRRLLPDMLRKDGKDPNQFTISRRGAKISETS

B1: canonical TGACA palindrome 16mer (dsDNA)
DNA 1: ATTGACAGCTGTCAAT
DNA 2: ATTGACAGCTGTCAAT
Consider B1, for which the results for the Kd in the data set with TGIF1-HD (160-250) and with TGIF1-HD (171-250) were 170 ± 20 nM and 728.1 ± 3 nM, respectively. Besides, the binding result with TGIF1-HD R167A/R168A is reported as “binds”.

As a reminder, the Kd is a measure of binding affinity in units of concentration. High values mean weaker binding, low ones tighter binding.
